From the Human Domainome abundance scans (Beltran et al. 2025) come the findings set out here.

To fix the notation:
B1: Gamma-crystallin C, residues 4 to 79; numbered along this chain, P07315 (parent)
chain: ITFYEDRAFQGRSYETTTDCPNLQPYFSRCNSIRVESGCWMLYERPNYQGQQYLLRRGEYPDYQQWMGLSDSIRSC

± gives the uncertainty stated by the source.

Variants of B1 are the subject of the data set. Put plainly: abundance fitness (aPCA) (normalised: wild type 0, dead -1); higher = more abundant; growth selection in yeast, the domain comes from the species named. As to conditions: Homo sapiens.
As for ITFYEDRAFQGRSYETTTDCPCLQPYFSRCNSIRVESGCWMLYERPNYQGQQYLLRRGEYPDYQQWMGLSDSIRSC [N22C], the abundance fitness is -0.123 ± 0.31.

On to ITFYEDRAFQGRSYETTTDCPALQPYFSRCNSIRVESGCWMLYERPNYQGQQYLLRRGEYPDYQQWMGLSDSIRSC [N22A], for which the abundance fitness is -0.041 ± 0.088. Take ITFYEDRAFQGRSYETTTDCPFLQPYFSRCNSIRVESGCWMLYERPNYQGQQYLLRRGEYPDYQQWMGLSDSIRSC [N22F]: the abundance fitness came out at 0.17 ± 0.13.

As for ITFYEDRAFQGRSYETTTDCPDLQPYFSRCNSIRVESGCWMLYERPNYQGQQYLLRRGEYPDYQQWMGLSDSIRSC [N22D], the abundance fitness is -0.004 ± 0.13. Turning to ITFYEDRAFQGRSYETTTDCPELQPYFSRCNSIRVESGCWMLYERPNYQGQQYLLRRGEYPDYQQWMGLSDSIRSC [N22E], the abundance fitness was -0.1 ± 0.13. On to ITFYEDRAFQGRSYETRTDCPNLQPYFSRCNSIRVESGCWMLYERPNYQGQQYLLRRGEYPDYQQWMGLSDSIRSC [T17R], for which the abundance fitness amounted to 0.034 ± 0.11. For ITFYEDRAFQGRSYETVTDCPNLQPYFSRCNSIRVESGCWMLYERPNYQGQQYLLRRGEYPDYQQWMGLSDSIRSC [T17V], the abundance fitness is -0.006 ± 0.099. As to ITFYEDRAFQGRSYETWTDCPNLQPYFSRCNSIRVESGCWMLYERPNYQGQQYLLRRGEYPDYQQWMGLSDSIRSC [T17W], the abundance fitness is -0.092 ± 0.18. As to ITFYEDRAFQGRSYETSTDCPNLQPYFSRCNSIRVESGCWMLYERPNYQGQQYLLRRGEYPDYQQWMGLSDSIRSC [T17S], the abundance fitness was -0.061 ± 0.088. In the case of ITFYEDRAFQGRSYETTEDCPNLQPYFSRCNSIRVESGCWMLYERPNYQGQQYLLRRGEYPDYQQWMGLSDSIRSC [T18E], the abundance fitness is -0.02 ± 0.1.

Consider ITFYEDRAFQGRSYETTQDCPNLQPYFSRCNSIRVESGCWMLYERPNYQGQQYLLRRGEYPDYQQWMGLSDSIRSC [T18Q], for which the abundance fitness is -0.333 ± 0.15. In the case of ITFYEDRAFQGRSYETTKDCPNLQPYFSRCNSIRVESGCWMLYERPNYQGQQYLLRRGEYPDYQQWMGLSDSIRSC [T18K], the abundance fitness is -0.065 ± 0.13. For ITFYEDRAFQGRSYETTMDCPNLQPYFSRCNSIRVESGCWMLYERPNYQGQQYLLRRGEYPDYQQWMGLSDSIRSC [T18M], the abundance fitness was -0.008 ± 0.11. Regarding ITFYEDRAFQGRSYETTPDCPNLQPYFSRCNSIRVESGCWMLYERPNYQGQQYLLRRGEYPDYQQWMGLSDSIRSC [T18P], the abundance fitness was -0.847 ± 0.25.

On to ITFYEDRAFQGRSYETTSDCPNLQPYFSRCNSIRVESGCWMLYERPNYQGQQYLLRRGEYPDYQQWMGLSDSIRSC [T18S], for which the abundance fitness stood at 0.044 ± 0.1. In the case of ITFYEDRAFQGRSYETTDDCPNLQPYFSRCNSIRVESGCWMLYERPNYQGQQYLLRRGEYPDYQQWMGLSDSIRSC [T18D], the abundance fitness is 0.169 ± 0.44. On to ITFYEDRAFQGRSYETTGDCPNLQPYFSRCNSIRVESGCWMLYERPNYQGQQYLLRRGEYPDYQQWMGLSDSIRSC [T18G], for which the abundance fitness was -0.006 ± 0.033. As for ITFYEDRAFQGRSYETTLDCPNLQPYFSRCNSIRVESGCWMLYERPNYQGQQYLLRRGEYPDYQQWMGLSDSIRSC [T18L], the abundance fitness is -0.023 ± 0.084. ITFYEDRAFQGRSYETTWDCPNLQPYFSRCNSIRVESGCWMLYERPNYQGQQYLLRRGEYPDYQQWMGLSDSIRSC [T18W]: the abundance fitness turned out to be 0.017 ± 0.091. Turning to ITFYEDRAFQGRSYETTVDCPNLQPYFSRCNSIRVESGCWMLYERPNYQGQQYLLRRGEYPDYQQWMGLSDSIRSC [T18V], the abundance fitness is -0.03 ± 0.064.

For ITFYEDRAFQGRSYETTADCPNLQPYFSRCNSIRVESGCWMLYERPNYQGQQYLLRRGEYPDYQQWMGLSDSIRSC [T18A], the abundance fitness turned out to be 0.09 ± 0.18.

Regarding ITFYEDRAFQGRSYETTCDCPNLQPYFSRCNSIRVESGCWMLYERPNYQGQQYLLRRGEYPDYQQWMGLSDSIRSC [T18C], the abundance fitness was -0.165 ± 0.19. ITFYEDRAFQGRSYETTFDCPNLQPYFSRCNSIRVESGCWMLYERPNYQGQQYLLRRGEYPDYQQWMGLSDSIRSC [T18F]: the abundance fitness is -0.014 ± 0.24.

Consider ITFYEDRAFQGRSYETTIDCPNLQPYFSRCNSIRVESGCWMLYERPNYQGQQYLLRRGEYPDYQQWMGLSDSIRSC [T18I], for which the abundance fitness was -0.031 ± 0.19. For ITFYEDRAFQGRSYETTRDCPNLQPYFSRCNSIRVESGCWMLYERPNYQGQQYLLRRGEYPDYQQWMGLSDSIRSC [T18R], the abundance fitness is -0.168 ± 0.087. As to ITFYEDRAFQGRSYETTNDCPNLQPYFSRCNSIRVESGCWMLYERPNYQGQQYLLRRGEYPDYQQWMGLSDSIRSC [T18N], the abundance fitness was 0.049 ± 0.12. With ITFYEDRAFQGRSYETTTDPPNLQPYFSRCNSIRVESGCWMLYERPNYQGQQYLLRRGEYPDYQQWMGLSDSIRSC [C20P], the abundance fitness was -0.64 ± 0.13. As for ITFYEDRAFQGRSYETTTDLPNLQPYFSRCNSIRVESGCWMLYERPNYQGQQYLLRRGEYPDYQQWMGLSDSIRSC [C20L], the abundance fitness was -0.042 ± 0.057. For the variant ITFYEDRAFQGRSYETTTDDPNLQPYFSRCNSIRVESGCWMLYERPNYQGQQYLLRRGEYPDYQQWMGLSDSIRSC [C20D], the abundance fitness was 0.169 ± 0.052. As for ITFYEDRAFQGRSYETTTDVPNLQPYFSRCNSIRVESGCWMLYERPNYQGQQYLLRRGEYPDYQQWMGLSDSIRSC [C20V], the abundance fitness is -0.133 ± 0.076. With ITFYEDRAFQGRSYETTTDSPNLQPYFSRCNSIRVESGCWMLYERPNYQGQQYLLRRGEYPDYQQWMGLSDSIRSC [C20S] the figure was 0.104 ± 0.11.

Turning to ITFYEDRAFQGRSYETTTDKPNLQPYFSRCNSIRVESGCWMLYERPNYQGQQYLLRRGEYPDYQQWMGLSDSIRSC [C20K], the abundance fitness was -0.243 ± 0.32.

As for ITFYEDRAFQGRSYETTTDMPNLQPYFSRCNSIRVESGCWMLYERPNYQGQQYLLRRGEYPDYQQWMGLSDSIRSC [C20M], the abundance fitness was 0.068 ± 0.12. ITFYEDRAFQGRSYETTTDGPNLQPYFSRCNSIRVESGCWMLYERPNYQGQQYLLRRGEYPDYQQWMGLSDSIRSC [C20G]: the abundance fitness was -0.058 ± 0.07.

With ITFYEDRAFQGRSYETTTDWPNLQPYFSRCNSIRVESGCWMLYERPNYQGQQYLLRRGEYPDYQQWMGLSDSIRSC [C20W], the abundance fitness is -0.103 ± 0.046. ITFYEDRAFQGRSYETTTDAPNLQPYFSRCNSIRVESGCWMLYERPNYQGQQYLLRRGEYPDYQQWMGLSDSIRSC [C20A]: the abundance fitness was found to be 0.124 ± 0.089.
